From article PMC6050272, “A TRAF3-NIK module differentially regulates DNA vs RNA pathways in innate immune signaling” (Nature Communications, 2018)

Biological target: the molecule itself
Assay: semi-native SDS PAGE; whole-cell lysates of WT and Nik-/- BMDMs transfected with B-DNA (2 μg/mL) for the indicated times; native sample buffer without β-mercaptoethanol, not boiled, run on SDS gels; immunoblot for STING

B1: STING, endogenous in mouse cells (natural protein, mouse (endogenous in MEFs and BMDMs), UniProt Q3TBT3 1-378, looked up)
chain: MPYSNLHPAIPRPRGHRSKYVALIFLVASLMILWVAKDPPNHTLKYLALHLASHELGLLLKNLCCLAEELCHVQSRYQGSYWKAVRACLGCPIHCMAMILLSSYFYFLQNTADIYLSWMFGLLVLYKSLSMLLGLQSLTPAEVSAVCEEKKLNVAHGLAWSYYIGYLRLILPGLQARIRMFNQLHNNMLSGAGSRRLYILFPLDCGVPDNLSVVDPNIRFRDMLPQQNIDRAGIKNRVYSNSVYEILENGQPAGVCILEYATPLQTLFAMSQDAKAGFSREDRLEQAKLFCRTLEEILEDVPESRNNCRLIVYQEPTDGNSFSLSQEVLRHIRQEEKEEVTMNAPMTSVAPPPSVLSQEPRLLISGMDQPLPLRTDLI
notes: STING (TMEM173), endogenous in murine embryonic fibroblasts and bone marrow-derived macrophages; source: endogenous, MEF lysate and BMDM lysate (cells transfected with B-DNA)
With B1 the “stoichiometry N” value was 2.
